Reference: patent US7029857B1, “Processes for obtaining compounds employing SNORF72 receptors” (H. Lundbeck A/S, priority 1999, dated 2006)
Where “and” joins values, the source holds several entries; their conditions need not be identical. Equal values may be shown once. No end group written: not given here.

Legend:
[1] = target: T1, SNORF72 (Homo sapiens, UniProt Q9GZQ4, A395T); experiment: Intracellular Ca2+ release (FLIPR) in SNORF72-transfected COS-7 cells; assay type: cell-based; conditions: stimulation of Ca2+ release, SNORF72-transfected COS-7 cells, n = 2-7 (Table 1A)
T1 construct: expressed in transfected cells; host or cells: COS-7 (transient, DEAE-dextran)
T1 sequence (Q9GZQ4 whole entry A395T): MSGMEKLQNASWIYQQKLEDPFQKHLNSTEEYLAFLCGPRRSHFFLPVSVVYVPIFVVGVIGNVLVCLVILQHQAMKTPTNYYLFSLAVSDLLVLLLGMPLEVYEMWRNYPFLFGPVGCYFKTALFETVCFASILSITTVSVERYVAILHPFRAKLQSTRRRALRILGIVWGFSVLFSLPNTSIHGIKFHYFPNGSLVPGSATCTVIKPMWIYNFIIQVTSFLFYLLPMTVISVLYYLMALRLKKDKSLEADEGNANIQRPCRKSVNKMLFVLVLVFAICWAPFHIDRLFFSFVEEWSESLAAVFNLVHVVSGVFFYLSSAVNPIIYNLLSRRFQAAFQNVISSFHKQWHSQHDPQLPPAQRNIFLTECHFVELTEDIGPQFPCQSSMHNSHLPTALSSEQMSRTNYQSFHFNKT
Method: (§1) A typical protocol for the DEAE-dextran method as applied to COS-7 and HEK293 cells is described as follows. Cells to be used for transfection are split 24 hours prior to the transfection to provide flasks which are 70–80% confluent at the time of transfection. Briefly, 8 μg of receptor DNA plus 8 μg of any additional DNA needed (e.g. Gα protein expression vector, reporter construct, antibiotic resistance marker, mock vector, etc.) are added to 9 ml of complete DMEM plus DEAE-dextran mixture (10 mg/ml in PBS). Cells plated into a T225 flask (sub-confluent) are washed once with PBS and the DNA mixture is added to each flask. The cells are allowed to incubate for 30 minutes at 37° C., 5% CO2. Following the incubation, 36 ml of complete DMEM with 80 μM chloroquine is added to each flask and allowed to incubate an additional 3 hours. The medium is then aspirated and 24 ml of complete medium containing 10% DMSO for exactly 2 minutes and then aspirated. The cells are then washed 2 times with PBS and 30 ml of complete DMEM added to each flask. The cells are then allowed to incubate over night. The next day the cells are harvested by trypsinization and reseeded into 96 well plates.
(§2) Cells expressing the receptor of interest are plated into clear, flat-bottom, black-walled 96-well plates (Costar) at a density of 80,000–150,000 cells per well and allowed to incubate for 48 hr at 5% CO2, 37° C. The growth medium is aspirated and 100 μL of loading medium containing Fluo-3 dye is added to each well. The loading medium contains: 20 mM HEPES (Sigma), 0.1% BSA (Sigma), dye/pluronic acid mixture (e.g. 1 mM Fluo-3/AM (Molecular Probes) and 10% pluronic acid (Molecular Probes) mixed immediately before use), and 2.5 mM probenecid (Sigma)(prepared fresh). The cells are allowed to incubate for about 1 hour at 5% CO2, 37° C.
(§3) The compounds of interest are diluted in wash buffer (Hank's BSS (without phenol red), 20 mM HEPES, 2.5 mM probenecid) to a 4× final concentration and aliquoted into a clear v-bottom plate (Nunc). Following the dye incubation, the cells are washed 4 times to remove excess dye using a Denley plate washer. 100 μL final volume of wash buffer is then added to each cell well. Compounds are added to the cell plates and responses are measured using the FLIPR™ instrument. The data are then collected and analyzed using the FLIPR™ software and Graphpad Prism.
(§4) COS-7 cells were transiently transfected with SNORF62, SNORF72 or vector DNA (mock) as described in Materials and Methods.

[2] = target: T2, SNORF62 (Homo sapiens, UniProt Q9HB89); experiment: Intracellular Ca2+ release (FLIPR) in SNORF62-transfected COS-7 cells; assay type: cell-based; design: The SNORF62 cDNA codes for a protein of 426 amino acids; expressed in transfected cells; host or cells: COS-7 (transient, DEAE-dextran); conditions: stimulation of Ca2+ release, SNORF62-transfected COS-7 cells, n = 2-7 (Table 1A)
T2 sequence (Q9HB89 1-426): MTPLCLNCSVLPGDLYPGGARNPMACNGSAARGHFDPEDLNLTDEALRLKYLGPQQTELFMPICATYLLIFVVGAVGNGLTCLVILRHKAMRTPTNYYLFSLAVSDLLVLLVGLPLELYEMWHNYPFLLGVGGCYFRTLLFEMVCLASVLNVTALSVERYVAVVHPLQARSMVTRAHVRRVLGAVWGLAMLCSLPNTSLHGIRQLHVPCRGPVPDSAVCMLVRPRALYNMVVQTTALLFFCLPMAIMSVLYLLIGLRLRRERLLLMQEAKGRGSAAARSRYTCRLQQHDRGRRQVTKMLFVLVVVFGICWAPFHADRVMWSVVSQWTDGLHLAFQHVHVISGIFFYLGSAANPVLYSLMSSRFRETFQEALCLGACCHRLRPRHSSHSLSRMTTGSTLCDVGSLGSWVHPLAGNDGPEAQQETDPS
Method: as §1, §2, §3, §4

[3] = target: T2, SNORF62; experiment: Displacement of [125I]rat NMU-23 binding in SNORF62-transfected COS-7 membranes; design: The SNORF62 cDNA codes for a protein of 426 amino acids; expressed in transfected cells; host or cells: COS-7 (transient, DEAE-dextran); conditions: binding affinity, SNORF62-transfected COS-7 cells (Table 1A); read-out: SNORF62 Avg Ki
Method: The specifics of preparing such cell membranes may in some cases be determined by the nature of the ensuing assay but typically involve harvesting whole cells and disrupting the cell pellet by sonication in ice cold buffer (e.g. 20 mM Tris HCl, mM EDTA, pH 7.4 at 4° C.). The resulting crude cell lysate is cleared of cell debris by low speed centrifugation at 200×g for 5 min at 4° C. The cleared supernatant is then centrifuged at 40,000×g for 20 min at 4° C., and the resulting membrane pellet is washed by suspending in ice cold buffer and repeating the high speed centrifugation step. The final washed membrane pellet is resuspended in assay buffer. Protein concentrations are determined by the method of Bradford (1976) using bovine serum albumin as a standard. The membranes may be used immediately or frozen for later use.
(§5) Radioligand binding assays were performed by diluting membranes prepared from cells expressing the receptor in 50 mM Tris buffer (pH=7.4 at 0° C.) containing 0.1% bovine serum albumin (Sigma), aprotinin (0.005 mg/ml, Boehringer Mannheim) and bestatin (0.1 mM, Sigma) as protease inhibitors. The final protein concentration in the assay was 12–40 μg/ml. […] The bound ligand was separated from free by filtration through GF/B filters presoaked in 0.5% polyethyleneimine (PEI), using a Tomtec (Wallac) vacuum filtration device. After addition of Ready Safe (Beckman) scintillation fluid, bound radioactivity was quantitated using a Trilux (Wallac) scintillation counter (approximately 40% counting efficiency of bound counts). Data was fit to non-linear curves using GraphPad Prism.
In this manner, agonist or antagonist compounds that bind to the receptor may be identified as they inhibit the binding of the labeled ligand to the membrane protein of cells expressing the said receptor. Non-specific binding was defined as the amount of radioactivity remaining after incubation of membrane protein in the presence of 100 nM of the unlabeled peptide corresponding to the radioligand used. In equilibrium saturation binding assays membrane preparations or intact cells transfected with the receptor are incubated in the presence of increasing concentrations of the labeled compound to determine the binding affinity of the labeled ligand.

[4] = target: T2, SNORF62; experiment: Calcium-activated Cl- currents in Xenopus oocytes injected with SNORF62 mRNA; assay type: cell-based; design: from linearized plasmids or PCR products containing the complete coding region of the gene; expressed in transfected cells; host or cells: Xenopus laevis oocytes injected with in vitro transcribed SNORF62 mRNA; conditions: 1 μM peptide, n=3
Method: Heterologous expression of GPCRs in Xenopus oocytes has been widely used to determine the identity of signaling pathways activated by agonist stimulation (Gundersen et al., 1983; Takahashi et al., 1987). Activation of the phospholipase C (PLC) pathway is assayed by applying a test compound in ND96 solution to oocytes previously injected with mRNA for the human SNORF62 and observing inward currents at a holding potential of approximately −80 mV. The appearance of currents that reverse at −25 mV and display other properties of the Ca^++-activated Cl^− channel is indicative of receptor-acitivation of PLC and release of IP3 and intracellular Ca^++.
In the present invention, oocytes were harvested from Xenopus laevis and injected with mRNA transcripts as previously described (Quick and Lester, 1994; Smith et al., 1997). SNORF62 mRNA transcript was synthesized using the T7 polymerase (“Message Machine”, Ambion) from linearized plasmids or PCR products containing the complete coding region of the gene. Oocytes were injected with 1–50 ng synthetic receptor RNA and incubated for 3–8 days at 17° C. Currents were recorded under dual electrode voltage clamp (Axon Instruments Inc.) with 3 M KCl-filled glass microelectrodes having resistances of 1–2 Mohm. Unless otherwise specified, oocytes were voltage clamped at a holding potential of −80 mV. […]

[5] = target: T3, human SNORF62 receptor (human, UniProt Q9HB89 1-426); experiment: cell-based or functional assay
T3 sequence: T2 sequence (Q9HB89 1-426)

[6] = target: T3, human SNORF62 receptor; experiment: cell-based or functional assay; remark: listed apart in the source
[7] = target: T3, human SNORF62 receptor; experiment: cell-based or functional assay; remark: listed apart in the source
[8] = target: T4, human SNORF72 receptor (human, UniProt Q9GZQ4 1-415); experiment: cell-based or functional assay
T4 sequence (Q9GZQ4 other isoform, or with tags, fused parts or gaps): as the sequence (Q9GZQ4 whole entry A395T) above

[9] = target: T3, human SNORF62 receptor; experiment: displacement of [125I]rat NMU-23, membranes of SNORF62-transfected COS-7 cells
Method: as §5, with “µg/ml.” for “μg/ml.”

[10] = target: T3, human SNORF62 receptor; experiment: displacement of [125I]rat NMU-23 (0.05-0.1 nM), membranes of SNORF62-transfected COS-7 cells, n=2
Method: as §5, with “µg/ml.” for “μg/ml.”

[11] = target: T4, human SNORF72 receptor; experiment: displacement of [125I]rat NMU-23 (0.05-0.1 nM), membranes of SNORF72-transfected COS-7 cells, n=2
Method: as §5, with “µg/ml.” for “μg/ml.”

[12] = target: T4, human SNORF72 receptor; experiment: cell-based or functional assay; remark: listed apart in the source
[13] = target: T4, human SNORF72 receptor; experiment: displacement of [125I]rat NMU-23, membranes of SNORF72-transfected COS-7 cells
Method: as §5, with “µg/ml.” for “μg/ml.”

[14] = target: T3, human SNORF62 receptor; experiment: saturation radioligand binding, membranes of SNORF62-transfected COS-7 cells, n=2
Method: as §5, with “µg/ml.” for “μg/ml.”

[15] = target: T4, human SNORF72 receptor; experiment: saturation radioligand binding, membranes of SNORF72-transfected COS-7 cells, n=2
Method: as §5, with “µg/ml.” for “μg/ml.”

CC[C@H](C)[C@H](NC(=O)[C@@H]1CCCN1C(=O)CNC(=O)[C@H](CCC(N)=O)NC(=O)[C@H](Cc1ccccc1)NC(=O)[C@H](CCC(=O)O)NC(=O)[C@H](CCC(=O)O)NC(=O)[C@H](CC(=O)O)NC(=O)[C@@H](NC(=O)[C@H](CCCCN)NC(=O)[C@@H](N)Cc1ccccc1)C(C)C)C(=O)N[C@H](C(=O)N[C@@H](CO)C(=O)N[C@@H](CCC(N)=O)C(=O)N[C@@H](CC(N)=O)C(=O)N[C@@H](CCCNC(=N)N)C(=O)N[C@@H](CCCNC(=N)N)C(=O)N[C@@H](Cc1ccc(O)cc1)C(=O)N[C@@H](Cc1ccccc1)C(=O)N[C@@H](CC(C)C)C(=O)N[C@@H](Cc1ccccc1)C(=O)N[C@@H](CCCNC(=N)N)C(=O)N1CCC[C@H]1C(=O)N[C@@H](CCCNC(=N)N)C(=O)N[C@@H](CC(N)=O)C(N)=O)C(C)C [porcine NMU-25, FKVDEEFQGPIVSQNRRYFLFRPRN—NH2]
EC50 [1]: 3 ± 0.7 nM
EC50 [2]: 5.2 ± 0.8 nM
Ki [3]: 1.1 ± 0.2 nM
current amplitude [4]: 2150±330 nA

FRVDEEFQSPFASQSRGYFLFRPRN-NH2 (also called human neuromedin U-25) [human NMU-25]
EC50, release of IP second messengers in SNORF62-transfected COS-7 cells [5]: 0.25 nM
release of IP second messengers, fold above basal, in SNORF62-transfected COS-7 cells [5]: ~2 fold
AVG EC50 (nM), stimulation of Ca++ release in SNORF62-transfected COS-7 cells (FLIPR) [6]: 4 nM
Avg EC50 (nM), stimulation of Ca2+ release in SNORF62-transfected COS-7 cells [7]: 4 nM
Avg EC50 (nM), stimulation of Ca2+ release in SNORF72-transfected COS-7 cells [8]: 2.4 nM
Ki [9]: 2 nM
pKi [10]: 8.7
pKi [11]: 8.5

YKVNEYQGPVAPSGGFFLFRPRN-NH2 (also called rat neuromedin U-23) [rat NMU-23]
EC50, release of IP second messengers in SNORF62-transfected COS-7 cells [5]: 0.23 nM
EC50, Ca2+ release in SNORF72-transfected COS-7 cells [12]: 1.7 nM and 5.1 nM
AVG EC50 (nM), stimulation of Ca++ release in SNORF62-transfected COS-7 cells (FLIPR) [6]: 2.1 nM
Avg EC50 (nM), stimulation of Ca2+ release in SNORF62-transfected COS-7 cells [7]: 2.1 nM
Avg EC50 (nM), stimulation of Ca2+ release in SNORF72-transfected COS-7 cells [8]: 5 nM
Ki [9]: 0.5 nM
Ki [13]: 0.5 nM
pKi [10]: 9.4
pKi [11]: 9

B1: [125I]rat NMU-23 (peptide)
peptide: YKVNEYQGPVAPSGGFFLFRPRN-NH2
modifications: also: 125I-labelled, residue not given here
notes: Radioligand from NEN, specific activity 2200 Ci/mmole; also called radioiodinated rat NMU-23
Kd [14]: 0.61 nM and 0.72 nM
Kd [15]: 0.81 nM and 0.96 nM
